From patent US20260167699A1 (Chugai, published 2026)

B1: GpH7-A5/GpH7-B3 variant S324_16H/GpL16-k0 (antibody, human IgG1, kappa)
heavy 1: not shown
heavy 2: not shown
light: DIVMTQSPLSLPVTPGEPASISCQASESLVHSNRNTYLHWYLQKPGQSPQLLIYKVSNRFSGVPDRFSGSGSGTDFTLKISRVEAEDVGVYYCSQNTHVPPTFGQGTKVEIERTVAAPSVFIFPPSDEQLKSGTASVVCLLNNFYPREAKVQWKVDNALQSGNSQESVTEQDSKDSTYSLSSTLTLSKADYEKHKVYACEVTHQGLSSPVTKSFNRGEC
notes: copies: 1 + 1 + 2
B2: GpH7-A5/GpH7-B3 variant Y296_14T/GpL16-k0 (antibody, human IgG1, kappa)
heavy 1: not shown
heavy 2: not shown
light: B1 light
notes: copies: 1 + 1 + 2
B3: GpH7-A5/GpH7-B3 variant T335_18N/GpL16-k0 (antibody, human IgG1, kappa)
heavy 1: not shown
heavy 2: not shown
light: B1 light
notes: copies: 1 + 1 + 2
B4: GpH7-A5/GpH7-B3 variant S324_20W/GpL16-k0 (antibody, human IgG1, kappa)
heavy 1: not shown
heavy 2: not shown
light: B1 light
notes: copies: 1 + 1 + 2
B5: GpH7-A5/GpH7-B3 variant T335_09D/GpL16-k0 (antibody, human IgG1, kappa)
heavy 1: not shown
heavy 2: not shown
light: B1 light
notes: copies: 1 + 1 + 2
B6: GpH7-A5/GpH7-B3 variant S337_14T/GpL16-k0 (antibody, human IgG1, kappa)
heavy 1: not shown
heavy 2: not shown
light: B1 light
notes: copies: 1 + 1 + 2
B7: GpH7-A5/GpH7-B3 variant V266_06M/GpL16-k0 (antibody, human IgG1, kappa)
heavy 1: not shown
heavy 2: not shown
light: B1 light
notes: copies: 1 + 1 + 2
B8: GpH7-A5/GpH7-B3 variant Y296_02A/GpL16-k0 (antibody, human IgG1, kappa)
heavy 1: not shown
heavy 2: not shown
light: B1 light
notes: copies: 1 + 1 + 2
B9: GpH7-A5/GpH7-B3 variant Y296_09D/GpL16-k0 (antibody, human IgG1, kappa)
heavy 1: not shown
heavy 2: not shown
light: B1 light
notes: copies: 1 + 1 + 2
B10: GpH7-A5/GpH7-B3 variant V266_02A/GpL16-k0 (antibody, human IgG1, kappa)
heavy 1: not shown
heavy 2: not shown
light: B1 light
notes: copies: 1 + 1 + 2
B11: GpH7-A5/GpH7-B3 variant S337_18N/GpL16-k0 (antibody, human IgG1, kappa)
heavy 1: not shown
heavy 2: not shown
light: B1 light
notes: copies: 1 + 1 + 2
B12: GpH7-A5/GpH7-B3 variant T335_15Y/GpL16-k0 (antibody, human IgG1, kappa)
heavy 1: not shown
heavy 2: not shown
light: B1 light
notes: copies: 1 + 1 + 2
B13: GpH7-A5/GpH7-B3 variant Y296_04F/GpL16-k0 (antibody, human IgG1, kappa)
heavy 1: not shown
heavy 2: not shown
light: B1 light
notes: copies: 1 + 1 + 2
B14: GpH7-A5/GpH7-B3 variant T335_06M/GpL16-k0 (antibody, human IgG1, kappa)
heavy 1: not shown
heavy 2: not shown
light: B1 light
notes: copies: 1 + 1 + 2
B15: GpH7-A5/GpH7-B3 variant S337_11K/GpL16-k0 (antibody, human IgG1, kappa)
heavy 1: not shown
heavy 2: not shown
light: B1 light
notes: copies: 1 + 1 + 2
B16: GpH7-A5/GpH7-B3 variant V266_07I/GpL16-k0 (antibody, human IgG1, kappa)
heavy 1: not shown
heavy 2: not shown
light: B1 light
notes: copies: 1 + 1 + 2
B17: GpH7-A5/GpH7-B3 variant T335_07I/GpL16-k0 (antibody, human IgG1, kappa)
heavy 1: not shown
heavy 2: not shown
light: B1 light
notes: copies: 1 + 1 + 2
B18: GpH7-A5/GpH7-B3 variant T335_20W/GpL16-k0 (antibody, human IgG1, kappa)
heavy 1: not shown
heavy 2: not shown
light: B1 light
notes: copies: 1 + 1 + 2
B19: GpH7-A5/GpH7-B3 variant V266_08L/GpL16-k0 (antibody, human IgG1, kappa)
heavy 1: not shown
heavy 2: not shown
light: B1 light
notes: copies: 1 + 1 + 2
B20: GpH7-A5/GpH7-B3 variant Y296_12R/GpL16-k0 (antibody, human IgG1, kappa)
heavy 1: not shown
heavy 2: not shown
light: B1 light
notes: copies: 1 + 1 + 2
B21: GpH7-A5/GpH7-B3 variant S337_10E/GpL16-k0 (antibody, human IgG1, kappa)
heavy 1: not shown
heavy 2: not shown
light: B1 light
notes: copies: 1 + 1 + 2
B22: GpH7-A5/GpH7-B3 variant Y296_06M/GpL16-k0 (antibody, human IgG1, kappa)
heavy 1: not shown
heavy 2: not shown
light: B1 light
notes: copies: 1 + 1 + 2
B23: GpH7-A5/GpH7-B3 variant Y296_18N/GpL16-k0 (antibody, human IgG1, kappa)
heavy 1: not shown
heavy 2: not shown
light: B1 light
notes: copies: 1 + 1 + 2
B24: GpH7-A5/GpH7-B3 variant T335_05P/GpL16-k0 (antibody, human IgG1, kappa)
heavy 1: not shown
heavy 2: not shown
light: B1 light
notes: copies: 1 + 1 + 2
B25: GpH7-A5/GpH7-B3 variant T335_03V/GpL16-k0 (antibody, human IgG1, kappa)
heavy 1: not shown
heavy 2: not shown
light: B1 light
notes: copies: 1 + 1 + 2
B26: GpH7-A5/GpH7-B3 variant S337_15Y/GpL16-k0 (antibody, human IgG1, kappa)
heavy 1: not shown
heavy 2: not shown
light: B1 light
notes: copies: 1 + 1 + 2
B27: GpH7-A5/GpH7-B3 variant S337_19Q/GpL16-k0 (antibody, human IgG1, kappa)
heavy 1: not shown
heavy 2: not shown
light: B1 light
notes: copies: 1 + 1 + 2
B28: GpH7-A5/GpH7-B3 variant T335_02A/GpL16-k0 (antibody, human IgG1, kappa)
heavy 1: not shown
heavy 2: not shown
light: B1 light
notes: copies: 1 + 1 + 2
B29: GpH7-A5/GpH7-B3 variant Y296_20W/GpL16-k0 (antibody, human IgG1, kappa)
heavy 1: not shown
heavy 2: not shown
light: B1 light
notes: copies: 1 + 1 + 2
B30: GpH7-A5/GpH7-B3 variant S337_12R/GpL16-k0 (antibody, human IgG1, kappa)
heavy 1: not shown
heavy 2: not shown
light: B1 light
notes: copies: 1 + 1 + 2
B31: GpH7-A5/GpH7-B3 variant S337_07I/GpL16-k0 (antibody, human IgG1, kappa)
heavy 1: not shown
heavy 2: not shown
light: B1 light
notes: copies: 1 + 1 + 2

Target: T1, FcγRIIIa (human, UniProt P08637 17-208)
T1 construct: extracellular domain; also called 3a; FcγRIIIa extracellular domain
T1 sequence (P08637 other isoform, or with tags, fused parts or gaps): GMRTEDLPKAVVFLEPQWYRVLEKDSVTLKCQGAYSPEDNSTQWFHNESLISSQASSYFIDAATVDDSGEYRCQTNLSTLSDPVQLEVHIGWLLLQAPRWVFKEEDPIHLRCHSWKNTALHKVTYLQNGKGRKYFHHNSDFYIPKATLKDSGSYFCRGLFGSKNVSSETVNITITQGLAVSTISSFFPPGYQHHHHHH
Assay: SPR (Biacore);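 also: antibody variants captured on an SPR sensor chip, with FcγRIIIa passed over as analyte in HBS-EP+ buffer at 25 °C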

| He/Con 3a | Binder |
| --- | --- |
| 113 % of GpH7-A5/GpH7-B3/GpL16-k0 | B1 |
| 60.7 % of GpH7-A5/GpH7-B3/GpL16-k0 | B2 |
| 94.4 % of GpH7-A5/GpH7-B3/GpL16-k0 | B3 |
| 111 % of GpH7-A5/GpH7-B3/GpL16-k0 | B4 |
| 103 % of GpH7-A5/GpH7-B3/GpL16-k0 | B5 |
| 94 % of GpH7-A5/GpH7-B3/GpL16-k0 | B6 |
| 84.9 % of GpH7-A5/GpH7-B3/GpL16-k0 | B7 |
| 66.3 % of GpH7-A5/GpH7-B3/GpL16-k0 | B8 |
| 89 % of GpH7-A5/GpH7-B3/GpL16-k0 | B9 |
| 56.8 % of GpH7-A5/GpH7-B3/GpL16-k0 | B10 |
| 96.9 % of GpH7-A5/GpH7-B3/GpL16-k0 | B11 |
| 99.7 % of GpH7-A5/GpH7-B3/GpL16-k0 | B12 |
| 79.5 % of GpH7-A5/GpH7-B3/GpL16-k0 | B13 |
| 97 % of GpH7-A5/GpH7-B3/GpL16-k0 | B14 |
| 80.1 % of GpH7-A5/GpH7-B3/GpL16-k0 | B15 |
| 113 % of GpH7-A5/GpH7-B3/GpL16-k0 | B16 |

| He/Con 3a | Binder |
| --- | --- |
| 102 % of GpH7-A5/GpH7-B3/GpL16-k0 | B17 |
| 97.3 % of GpH7-A5/GpH7-B3/GpL16-k0 | B18 |
| 117 % of GpH7-A5/GpH7-B3/GpL16-k0 | B19 |
| 66.5 % of GpH7-A5/GpH7-B3/GpL16-k0 | B20 |
| 97.8 % of GpH7-A5/GpH7-B3/GpL16-k0 | B21 |
| 74.6 % of GpH7-A5/GpH7-B3/GpL16-k0 | B22 |
| 67.9 % of GpH7-A5/GpH7-B3/GpL16-k0 | B23 |
| 100 % of GpH7-A5/GpH7-B3/GpL16-k0 | B24 |
| 96.3 % of GpH7-A5/GpH7-B3/GpL16-k0 | B25 |
| 94.9 % of GpH7-A5/GpH7-B3/GpL16-k0 | B26 |
| 91.2 % of GpH7-A5/GpH7-B3/GpL16-k0 | B27 |
| 90.9 % of GpH7-A5/GpH7-B3/GpL16-k0 | B28 |
| 127 % of GpH7-A5/GpH7-B3/GpL16-k0 | B29 |
| 92.7 % of GpH7-A5/GpH7-B3/GpL16-k0 | B30 |
| 88.3 % of GpH7-A5/GpH7-B3/GpL16-k0 | B31 |
